# In PMC8938473:
# Target: T1, His6-CRP (cAMP receptor protein) (Shewanella putrefaciens CN32) (UniProt A0ABX8XCW1)
# T1 sequence: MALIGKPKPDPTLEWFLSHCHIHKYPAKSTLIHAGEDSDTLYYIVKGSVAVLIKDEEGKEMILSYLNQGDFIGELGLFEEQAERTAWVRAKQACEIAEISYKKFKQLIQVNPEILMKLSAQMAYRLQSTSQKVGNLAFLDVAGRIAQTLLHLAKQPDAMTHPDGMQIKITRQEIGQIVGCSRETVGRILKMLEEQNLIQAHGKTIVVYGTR
# Assay: EMSA
# Details: EMSA per DIG Gel Shift Kit 2nd Generation (Roche) protocol, 1 uM cAMP when necessary; buffer, salt, pH and temperature not given
sequence,measurement,value
ACCGATCCCATAATTAGCTCCCAACACCCAAGTGTTAATCCAAACAAAGGCCCACAAATCCAACAAATGTATGGAAGTGTGATACAAGTGGTGGAATTTTAGCTAATGAGCGAATGGAAGTCAATTTTTTGACGCGCCTCTATCGCTTGGTATTAAGGCTTTTTCTTGCGCATTACCTGTAAAATTGACGCTGGTTTTGTATAAAACTAGATGTTGTATGTTTATTTGTA (double strand) [bpfA-pro],binding,binds
